Measurements as given in patent publication US20100287625A1, “VEGF VARIANTS” (UNIVERSITE DE LIEGE, priority 2006, published 2010).

B1: VEGF111: new VEGF isoform lacking exons 5 to 7, SEQ ID NO:2; recombinant, produced in HEK293 cells (protein, listed as Homo sapiens)
chain: MNFLLSWVHWSLALLLYLHHAKWSQAAPMAEGGGQNHHEVVKFMDVYQRSYCHPIETLVDIFQEYPDEIEYIFKPSCVPLMRCGGCCNDEGLECVPTEESNITMQIMRIKPHQGQHIGEMSFLQHNKCECRPCGPCSERRKHLFVQDPQTCKCSCKNTDSRCKARQLELNERTCRCDKPRR
B2: VEGF121: known VEGF isoform, recombinant, produced in HEK293 cells (protein)
chain: APMAEGGGQNHHEVVKFMDVYQRSYCHPIETLVDIFQEYPDEIEYIFKPSCVPLMRCGGCCNDEGLECVPTEESNITMQIMRIKPHQGQHIGEMSFLQHNKCECRPKKDRARQEKCDKPRR

Legend:
[1] = target: plasmin (Homo sapiens, UniProt P00747); experiment: Degradation of recombinant VEGF by plasmin, western blotting; format: in vitro ADME; details: 20 ng reVEGF, plasmin 0.04 to 0.32 units/ml, 4 hours
Protocol: (§1) Recombinant VEGF165, VEGF121 or VEGF111 were produced in HEK293 cells. […] The figure depicts the percentage of degradation of each VEGF by comparison with untreated samples.
To facilitate the analysis of the electrophoretic patterns they were further treated with PNGase as described above and the products of the reactions were analysed by western blotting. […] FIG. 6A depicts the percentage of degradation of each VEGF by comparison with untreated samples.

[2] = Degradation of recombinant VEGF by chronic wound fluid, western blotting; format: in vitro ADME; details: for susceptibility to proteolytic degradation by plasmin and fluids from chronic ulcers: summary statement
Protocol: (§2) FIG. 7: VEGF111 is resistant to degradation by fluids collected from chronic wound. A: Conditioned media containing 20 ng of recombinant VEGF as produced above were treated with chronic wound fluid collected in one patient (20 μl at 37° C.) for indicated times and analysed by western blotting using anti-VEGF antibodies. B: HUVEC were treated with recombinant VEGF111, VEGF121 or VEGF165 produced in HEK293 cells, or with commercially available VEGF165 or the carrier alone, untreated or treated with fluids from chronic wounds (20 μl at 37° C. for 24 hours), and cell multiplication was measured by incorporation of ^3H-thymidine.
Conditioned media containing 20 ng of recombinant VEGF as produced above were treated with chronic wound fluid collected in one patient (20 μl at 37° C.) for indicated times and analysed by western blotting using anti-VEGF antibodies (FIG. 7A). […] FIG. 7B depicts the effect of treatment with chronic wound fluids on the mitogenic activity of the recombinants VEGF on HUVEC.

[3] = test system: HUVEC; experiment: Mitogenic activity on HUVEC of VEGF pre-treated with plasmin or chronic wound fluids (3H-thymidine incorporation); format: cell-based, human; details: summary statement, FIG. 6B, 7B
Protocol: as §1, §2
(§3) 15000 HUVEC were seeded in gelatin-coated wells of 24 multiwells dishes in the presence of FCS. After three hours, the medium was replaced by fresh medium containing or not VEGF and renewed every two days. Cells were collected at various times and the DNA was measured by fluorimetry on a SpectraMax Gemini XS apparatus (Molecular Devices, England) after labeling with bis-benzimide. In some experiments, ^3H-thymidine (1 μM, 2.5 Ci/mol, NEN, Wellesley, Mass., USA) was added to cell cultures at day two and the trichloracetic acid-precipitable radioactivity was measured after 18 hours.

[4] = test system: ERK1/2; experiment: Activation of ERK1/2 signalling in HUVEC, western blotting; format: cell-based, human; details: HUVEC starved overnight, treated 5 min
Protocol: (§4) FIG. 4: VEGF111 is biologically active in vitro. A and B: VEGF111 activates VEGF-R2 (A) and ERK1/2 (B) in HUVEC. HUVEC were treated with HEK293 conditioned mediums containing VEGF111, VEGF121 or VEGF165, commercially available recombinant VEGF165 produced in bacteria (cVEGF) (20 ng/ml each) or fetal calf serum (FCS, 10%) for 5 minutes. Untreated cells (−) or cells treated with conditioned medium of control HEK293 cells (CM) served as control. Total and phosphorylated VEGF-R2 and ERK1/2 were measured by western blotting. C: VEGF111 promotes proliferation of HUVEC. HUVEC were treated with HEK293 conditioned mediums containing VEGF111(black circles), VEGF121 (open triangles) or VEGF165 (black triangles) (10 ng/ml) or conditioned medium from control HEK293 cells (open circles). The DNA was measured in triplicate wells harvested at increasing time of treatment. D: representative microphotograph of -embryoid bodies after immunofluorescent labeling of CD31 as marker of vasculature. Bar: […]. E: A number of microphotographs (of 6 embryoid bodies from 3 independent experiments for each treatment) were taken at random and analyzed by 5 investigators not aware of the treatments, and a score (from 0 to 3, where 0 indicates lack of vascular labeling, and 3 maximum labeling) was given to each sample. F: CD31 mRNA level was measured in embryoid bodies (10 samples in 3 independent experiment for each group) as described in Material and Methods. Statistical analysis was performed using the homoscedastic Student T test. *: p<0.05; **: p<0.01; ***: p<0.001
The proteins were migrated onto polyacrylamide gels and transferred onto PVDF transfer membranes (NEN, Boston, Mass.) by electroblotting. The membranes were blocked by non-fat dry milk (3% in PBS-tween buffer) and probed with first and horseradish peroxidase-conjugated secondary antibodies. Signals were detected by chemiluminescence using a ECL Western Blotting Analysis system (Amersham, Little Chalfont, England) and X-ray film exposure and quantified using a Fluor-S MultiImager (BioRad, Hercules, Calif.).
VEGF induces a number of effects in endothelial cells, including autophosphorylation of its receptors, activation of the ERK1/2 MAPkinases pathways, induction of calcium transients and increased proliferation. The in vitro effects of recombinants VEGFs on HUVEC were compared. HUVEC were starved overnight and treated for five min. with reVEGFs. […] Conditioned medium from HEK293 cells transfected with the empty vector had no effect. To further confirm the biological activity of VEGF111 the activation of ERK1/2 signalling pathways was investigated by western blotting using monoclonal phospho-specific antibodies. HUVEC were starved overnight and treated with the three reVEGF isoforms, as well as rbVEGF165, for 5 min. […]

[5] = test system: HUVEC; experiment: Intracellular calcium transients in HUVEC (Fluo3, confocal microscopy); format: cell-based, human; details: conditioned medium with 10 ng VEGF, control medium about 15%
Protocol: HUVEC were plated for 18 hours in MCDB-131 medium containing 20% FCS in borosilicate culture chambers (Lab-Tek®, Nunc, Rochester N.Y.) coated with gelatin, rinsed with serum-free medium, incubated with the fluorophore Fluo3-AM (10 μM, Molecular Probes, Eugene, Oreg.) in serum-free medium for two hours and washed. The observation of the fluorescence emitted by the Fluo3-labeled cells started 5 minutes after the last washing. Microscope fields randomly selected were examined by a confocal microscope (Meridian, Akemos, Mich.). The Fluo3-loaded cells were excited by an Argon LASER at 488 nm and the emitted fluorescence recorded at 530 nm in each cell of the field by real time imaging. Image processing and data computing were performed using the Meridian software. The intensity of the emitted fluorescence was recorded every second during 4 minutes. As the overall fluorescence intensity varied from cell to cell, the level of fluorescence of each cell at the beginning of the recording was normalised to one arbitrary unit. The baseline of resting cells spontaneously oscillated by ±10% around the level of the first image acquisition. After a 20 second period of baseline recording, 10-20 μL of conditioned medium from HEK293 cells expressing or not VEGF111, VEGF121 or VEGF165 (10 ng) were added gently on the cells under microscopic examination. A 20% rise above the baseline was considered as a significant calcium rise and the cell regarded as responsive. The results were expressed as the percentage of responding cells.
The induction of calcium transients by the various reVEGFs was investigated on HUVEC by real-time fluorescent microscopy as described. As the calcium concentration in resting cells spontaneously varied by about 10% around the baseline, cells were defined as responsive when the treatments induced a peak of calcium at least 20% above the baseline. HUVEC were treated with conditioned mediums from control HEK293 cells or cells expressing VEGF111, VEGF121 and VEGF165.

[6] = test system: HUVEC; experiment: HUVEC proliferation (DNA measurement); format: cell-based, human; details: 10 ng/ml, medium renewed every two days
Protocol: as §4
as §3, with “After three hours, the medium was replaced by fresh medium containing or not VEGF and renewed every two days.” left out, “hours. […]” for “hours.”

[7] = test system: recombinant VEGF111 produced in HEK293 cells
[8] = target: recombinant VEGF121 produced in HEK293 cells (UniProt P15692)
[9] = target: recombinant VEGF165 produced in HEK293 cells (UniProt P15692)

Sequence of plasmin (Homo sapiens, UniProt P00747) (P00747 581-810 limits assumed, species assumed): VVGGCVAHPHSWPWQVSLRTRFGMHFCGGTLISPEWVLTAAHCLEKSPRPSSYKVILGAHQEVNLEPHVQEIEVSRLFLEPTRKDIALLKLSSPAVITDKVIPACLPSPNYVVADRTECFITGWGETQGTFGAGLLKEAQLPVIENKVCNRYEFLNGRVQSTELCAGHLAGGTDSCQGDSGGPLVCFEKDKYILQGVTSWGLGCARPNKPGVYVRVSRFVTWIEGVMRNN
Sequence of plasmin (Homo sapiens, UniProt P00747) (P00747 97-580 partner limits assumed, species assumed): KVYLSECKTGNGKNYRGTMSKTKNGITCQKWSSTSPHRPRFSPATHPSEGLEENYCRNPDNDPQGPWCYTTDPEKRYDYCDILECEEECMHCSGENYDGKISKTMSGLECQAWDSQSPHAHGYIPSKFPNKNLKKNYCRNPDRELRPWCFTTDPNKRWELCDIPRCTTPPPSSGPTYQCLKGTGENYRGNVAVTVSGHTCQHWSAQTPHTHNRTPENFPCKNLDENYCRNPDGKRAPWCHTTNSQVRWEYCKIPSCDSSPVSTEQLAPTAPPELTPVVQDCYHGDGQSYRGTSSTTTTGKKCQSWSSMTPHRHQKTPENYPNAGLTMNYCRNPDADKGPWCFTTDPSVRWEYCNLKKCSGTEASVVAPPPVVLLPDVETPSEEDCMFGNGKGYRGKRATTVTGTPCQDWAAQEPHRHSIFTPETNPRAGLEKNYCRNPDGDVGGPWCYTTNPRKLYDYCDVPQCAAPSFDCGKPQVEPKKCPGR

Molecule	degradation by plasmin (western blotting) [1]	susceptibility to proteolytic degradation by plasmin and fluids from chronic ulcers [2]	effect of treatment by plasmin or fluids from non-healing wounds on the activity of the VEGF [3]	phosphorylation of ERK1/2 [4]	percentage of responding cells (calcium transients, peak at least 20% above baseline) [5] [%]	increase of proliferation rate as compared to control conditioned medium [6] [fold]	dose of plasmin that cleaves VEGF by 50% [7]	dose of plasmin that cleaves VEGF by 50% [8]	dose of plasmin that cleaves VEGF by 50% [9]	dose of plasmin that cleaves VEGF by 50% ([1]; 37° C.)	degradation by chronic wound fluid ([2]; 20 ng VEGF, 20 μl wound fluid of one patient, 37° C., after 24 hrs)
VEGF165: known VEGF isoform, recombinant, produced in HEK293 cells [reference compound]	progressively degraded	susceptible	reduces or suppresses	induced	70	2.5					
plasmin							above 0.32 U/ml for VEGF111	comprised between 0.05 and 0.07 U/ml for VEGF165 and VEGF121	comprised between 0.05 and 0.07 U/ml for VEGF165 and VEGF121		
B1	unaffected		does not affect	induced	70	2				above 0.32 U/ml	no detectable degradation
B2	progressively degraded	susceptible	reduces or suppresses	induced	70	2					
